Results: the supplement of paper PMC12338614
± gives the uncertainty stated by the source.

B1: library; numbered along this chain (parent)
chain: MEVVDPQQLGMFTEGELMSVGMDTFIHRIDSTEVIYQPRRKRAKLIGKYLMGDLLGEGSYGKVKEVLDSETLCRRAVKILKKKKLRRIPNGEANVKKEIQLLRRLRHKNVIQLVDVLYNEEKQKMYMVMEYCVCGMQEMLDSVPEKRFPVCQAHGYFCQLIDGLEYLHSQGIVHKDIKPGNLLLTTGGTLKISDLGVAEALHPFAADDTCRTSQGSPAFQPPEIANGLDTFSGFKVDIWSAGVTLYNITTGLYPFEGDNIYKLFENIGKGSYAIPGDCGPPLSDLLKGMLEYEPAKRFSIRQIRQHSWFRKKHPPAEAPVPIPPSPDTKDRWRSMTVVPYLEDLHGADEDEDLFDIEDDIIYTQDFTVPGQVPEEEASHNGQRRGLPKAVCMNGTEAAQLSTKSRAEGRAPNPARKACSASSKIRRLSACKQQ

Variants of: B1
Assay: STK11 functional score (HeLa growth suppression), rescaled enrichment; synonymous median = 1, nonsense median = 0 (normalised score)
Details: with HeLa; variant type: missense
In short: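 HeLa cells carrying an AAVS1 landing pad received codon-optimised STK11 libraries made by codon randomisation (POPCode), integrated by Bxb1, with three regions each transfected three times. Integrants that were BFP-negative and mCherry-positive were sorted by FACS 4–5 days after electroporation and then grown for about two weeks. Tiled amplicons from gDNA were sequenced on NextSeq at ~2 million reads per tile. The functional score is a wild-type-corrected log ratio of post- to pre-selection counts, rescaled to the synonymous and nonsense medians, merged across codons and replicate transfections, and given a bootstrapped error.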

Variant	STK11 functional score
MEVVDPQQLGMFTEGELMSVGMDTFIHRIDSTEVIYQPRRKRAKLIGKYLMGDLLGEGSYGKVKEVLDSETLCRRAVKILKKKKLRRIPNGEANVKKEIQLLRRLRHKNVIQLVDVLYNEEKQKMYMVMEYCVCGMQEMLDSAPEKRFPVCQAHGYFCQLIDGLEYLHSQGIVHKDIKPGNLLLTTGGTLKISDLGVAEALHPFAADDTCRTSQGSPAFQPPEIANGLDTFSGFKVDIWSAGVTLYNITTGLYPFEGDNIYKLFENIGKGSYAIPGDCGPPLSDLLKGMLEYEPAKRFSIRQIRQHSWFRKKHPPAEAPVPIPPSPDTKDRWRSMTVVPYLEDLHGADEDEDLFDIEDDIIYTQDFTVPGQVPEEEASHNGQRRGLPKAVCMNGTEAAQLSTKSRAEGRAPNPARKACSASSKIRRLSACKQQ [V143A]	1.34 ± 0.084
MEVVDPQQLGMFTEGELMSVGMDTFIHRIDSTEVIYQPRRKRAKLIGKYLMGDLLGEGSYGKVKEVLDSETLCRRAVKILKKKKLRRIPNGEANVKKEIQLLRRLRHKNVIQLVDVLYNEEKQKMYMVMEYCVCGMQEMLDSFPEKRFPVCQAHGYFCQLIDGLEYLHSQGIVHKDIKPGNLLLTTGGTLKISDLGVAEALHPFAADDTCRTSQGSPAFQPPEIANGLDTFSGFKVDIWSAGVTLYNITTGLYPFEGDNIYKLFENIGKGSYAIPGDCGPPLSDLLKGMLEYEPAKRFSIRQIRQHSWFRKKHPPAEAPVPIPPSPDTKDRWRSMTVVPYLEDLHGADEDEDLFDIEDDIIYTQDFTVPGQVPEEEASHNGQRRGLPKAVCMNGTEAAQLSTKSRAEGRAPNPARKACSASSKIRRLSACKQQ [V143F]	1.01 ± 0.28
MEVVDPQQLGMFTEGELMSVGMDTFIHRIDSTEVIYQPRRKRAKLIGKYLMGDLLGEGSYGKVKEVLDSETLCRRAVKILKKKKLRRIPNGEANVKKEIQLLRRLRHKNVIQLVDVLYNEEKQKMYMVMEYCVCGMQEMLDSIPEKRFPVCQAHGYFCQLIDGLEYLHSQGIVHKDIKPGNLLLTTGGTLKISDLGVAEALHPFAADDTCRTSQGSPAFQPPEIANGLDTFSGFKVDIWSAGVTLYNITTGLYPFEGDNIYKLFENIGKGSYAIPGDCGPPLSDLLKGMLEYEPAKRFSIRQIRQHSWFRKKHPPAEAPVPIPPSPDTKDRWRSMTVVPYLEDLHGADEDEDLFDIEDDIIYTQDFTVPGQVPEEEASHNGQRRGLPKAVCMNGTEAAQLSTKSRAEGRAPNPARKACSASSKIRRLSACKQQ [V143I]	1.09 ± 0.16
MEVVDPQQLGMFTEGELMSVGMDTFIHRIDSTEVIYQPRRKRAKLIGKYLMGDLLGEGSYGKVKEVLDSETLCRRAVKILKKKKLRRIPNGEANVKKEIQLLRRLRHKNVIQLVDVLYNEEKQKMYMVMEYCVCGMQEMLDSHPEKRFPVCQAHGYFCQLIDGLEYLHSQGIVHKDIKPGNLLLTTGGTLKISDLGVAEALHPFAADDTCRTSQGSPAFQPPEIANGLDTFSGFKVDIWSAGVTLYNITTGLYPFEGDNIYKLFENIGKGSYAIPGDCGPPLSDLLKGMLEYEPAKRFSIRQIRQHSWFRKKHPPAEAPVPIPPSPDTKDRWRSMTVVPYLEDLHGADEDEDLFDIEDDIIYTQDFTVPGQVPEEEASHNGQRRGLPKAVCMNGTEAAQLSTKSRAEGRAPNPARKACSASSKIRRLSACKQQ [V143H]	1.44 ± 0.18
MEVVDPQQLGMFTEGELMSVGMDTFIHRIDSTEVIYQPRRKRAKLIGKYLMGDLLGEGSYGKVKEVLDSETLCRRAVKILKKKKLRRIPNGEANVKKEIQLLRRLRHKNVIQLVDVLYNEEKQKMYMVMEYCVCGMQEMLDSGPEKRFPVCQAHGYFCQLIDGLEYLHSQGIVHKDIKPGNLLLTTGGTLKISDLGVAEALHPFAADDTCRTSQGSPAFQPPEIANGLDTFSGFKVDIWSAGVTLYNITTGLYPFEGDNIYKLFENIGKGSYAIPGDCGPPLSDLLKGMLEYEPAKRFSIRQIRQHSWFRKKHPPAEAPVPIPPSPDTKDRWRSMTVVPYLEDLHGADEDEDLFDIEDDIIYTQDFTVPGQVPEEEASHNGQRRGLPKAVCMNGTEAAQLSTKSRAEGRAPNPARKACSASSKIRRLSACKQQ [V143G]	1.33 ± 0.077
MEVVDPQQLGMFTEGELMSVGMDTFIHRIDSTEVIYQPRRKRAKLIGKYLMGDLLGEGSYGKVKEVLDSETLCRRAVKILKKKKLRRIPNGEANVKKEIQLLRRLRHKNVIQLVDVLYNEEKQKMYMVMEYCVCGMQEMLDSDPEKRFPVCQAHGYFCQLIDGLEYLHSQGIVHKDIKPGNLLLTTGGTLKISDLGVAEALHPFAADDTCRTSQGSPAFQPPEIANGLDTFSGFKVDIWSAGVTLYNITTGLYPFEGDNIYKLFENIGKGSYAIPGDCGPPLSDLLKGMLEYEPAKRFSIRQIRQHSWFRKKHPPAEAPVPIPPSPDTKDRWRSMTVVPYLEDLHGADEDEDLFDIEDDIIYTQDFTVPGQVPEEEASHNGQRRGLPKAVCMNGTEAAQLSTKSRAEGRAPNPARKACSASSKIRRLSACKQQ [V143D]	1.46 ± 0.33
MEVVDPQQLGMFTEGELMSVGMDTFIHRIDSTEVIYQPRRKRAKLIGKYLMGDLLGEGSYGKVKEVLDSETLCRRAVKILKKKKLRRIPNGEANVKKEIQLLRRLRHKNVIQLVDVLYNEEKQKMYMVMEYCVCGMQEMLDSLPEKRFPVCQAHGYFCQLIDGLEYLHSQGIVHKDIKPGNLLLTTGGTLKISDLGVAEALHPFAADDTCRTSQGSPAFQPPEIANGLDTFSGFKVDIWSAGVTLYNITTGLYPFEGDNIYKLFENIGKGSYAIPGDCGPPLSDLLKGMLEYEPAKRFSIRQIRQHSWFRKKHPPAEAPVPIPPSPDTKDRWRSMTVVPYLEDLHGADEDEDLFDIEDDIIYTQDFTVPGQVPEEEASHNGQRRGLPKAVCMNGTEAAQLSTKSRAEGRAPNPARKACSASSKIRRLSACKQQ [V143L]	1.17 ± 0.15
